This passage reports self-cleavage results from the RNAGym collection of RNA variant scans (doi:10.7554/elife.80360).

B1: HDV Ribozyme (parent)
chain: GGCCGGCAUGGUCCCAGCCUCCUCGCUGGCGCCGGCUGGGCAACAUUCCGAGGGGACCGUCCCCUCGGUAAUGGCGAAUGGGACCCA

In the series the parent is B1. In words: self-cleavage, relative activity (ratio to wild type); higher = more cleavage; co-transcriptional.
On to G10C U12G, for which the self-cleavage stood at 0. G10C C66U: the self-cleavage worked out at 0.862. Take G10C C66G: the self-cleavage came to 0.646. The same measure for G10C C66A: 0.848; for G10U U23A: 0.604; for G10U U23C: 0.62.

As to G10U U23G, the self-cleavage turned out to be 0.0791. For the variant G11A G53U, the self-cleavage came to 0.588. The same measure for G10C A51G: 0.72; for G10C A51U: 0.923; for G10U C41G: 0.619.

G10U C18U: the self-cleavage was 0.12. Under G10U C18G stands 0.111. The same measure for G11A A42U: 0.158; for G10C C26G: 1.14; for G10C C26A: 1.12. The same measure for G10C A83C: 0.0615; for G10C A83U: 0.465; for G11A C24A: 0.126.

Turning to G11A C24G, the self-cleavage came to 0.0747.

For the variant G11A C24U, the self-cleavage stood at 0.194. Under G11A A83C stands 0.0707; under G10C G68A, 0.706.

With G10C G68C, the self-cleavage was 0.705. Take G10C A16C: the self-cleavage was 0.88. As to G10U G53U, the self-cleavage amounted to 0.699.

G10U G53C: the self-cleavage worked out at 0.773. Take G10U C84U: the self-cleavage was 0.409.

With G10C C85G, the self-cleavage came out at 0.76. Under G10C G80A stands 0.166; under G10U C48G, 0.767; under G10U C48U, 0.782. The same measure for G10C G34C: 0.289; for G10U G54U: 0.865; for G10U U20G: 0.113. For G10U U20A, the self-cleavage is 0.0639.

As to G11A A43U, the self-cleavage was 0.198. The same measure for G11A A43C: 0.106; for G10U A56G: 0.689; for G10U A56U: 0.893. The same measure for G10U A42G: 0.325; for G10U A42C: 0.149. For the variant G10U A42U, the self-cleavage came out at 0.174. Under G10C C21G stands 0.032; under G10C C21U, 0.0256; under G10C C21A, 0.0723.

Consider G11A C62U, for which the self-cleavage stood at 0.354. Under G11A C62A stands 0.352. For the variant G10U G52A, the self-cleavage was found to be 0.878. For G10U G52U, the self-cleavage was 0.891. The same measure for G10C C75G: 0.115; for G10C C33G: 0.145; for G10C C33U: 0.696. The same measure for G11A G39U: 0.0989; for G11A G39C: 0; for G10C G38C: 0.0941.

Consider G10C G38A, for which the self-cleavage worked out at 0.0692.

Turning to G10C G38U, the self-cleavage was determined as 0.132. Under G10U C33G stands 0.0511; under G10U A51U, 0.767.

G10U A51C: the self-cleavage was found to be 1.09. For G10U A51G, the self-cleavage came out at 0.707. Under G11A A70C stands 0.175. Consider G10C A71G, for which the self-cleavage came out at 0.906.

In the case of G10C A71U, the self-cleavage came to 0.767.

Consider G10C A71C, for which the self-cleavage came to 0.802. On to G10U C49U, for which the self-cleavage came to 0.955. Under G10U C49A stands 0.554; under G10C C22U, 0.326; under G10C C22G, 0.

For the variant G10C C22A, the self-cleavage worked out at 0.108.

Turning to G10U U65G, the self-cleavage is 0.619. Under G10U C75A stands 0.0213; under G11A C85A, 0.735; under G11A C85U, 0.787.

As to G10C C41G, the self-cleavage amounted to 0.437. Under G10C C41A stands 0.767; under G10C C41U, 0.692. The same measure for G11A A77U: 0.109; for G11A C30A: 0.106.

For G11A C30G, the self-cleavage is 0.0225. For G10U C14A, the self-cleavage turned out to be 0. The same measure for G10U C14G: 0.166; for G10U U72G: 0.407; for G11A C63U: 0.376. The same measure for G10U C85G: 1.03; for G10U C85A: 1.15; for G11A G40C: 0.0623.

On to G10C G35C, for which the self-cleavage was 0.102. Regarding G10C G35A, the self-cleavage was 0.525. Turning to G10U C44G, the self-cleavage is 0.296. Under G10U C44U stands 0.459; under G10U C44A, 0.277. The same measure for G10U A78C: 0.0499; for G10U A78G: 0.449. Under G11A A71U stands 0.229. For G11A A71C, the self-cleavage was found to be 0.295. Take G11A A71G: the self-cleavage is 0.554. The same measure for G11A C21U: 0.175; for G11A C21A: 0.11.

Regarding G11A C21G, the self-cleavage worked out at 0.04. Under G10U C36U stands 0.472. The same measure for G10U C36G: 0.0615; for G11A G73C: 0.0252. The same measure for G11A G73U: 0.0769; for G11A G73A: 0.124; for G10C G74A: 0.119. Take G10C G74C: the self-cleavage amounted to 0.161. For G10C G74U, the self-cleavage stood at 0.166. Under G11A C36U stands 0.156. Under G10U C26U stands 1.13; under G10U C26G, 0.677; under G10U G35U, 0.337. Take G10U G35C: the self-cleavage was 0.0723.

Turning to G10U G35A, the self-cleavage stood at 0.604. Under G10C C36A stands 0.0627; under G10C C36G, 0.0831; under G10C C36U, 0.554. The same measure for G10C A42C: 0.142; for G10C G76A: 1.2. The same measure for G10C G52C: 0.78; for G10U G82A: 0.241; for G11A A56U: 0.487. For the variant G10C C58G, the self-cleavage worked out at 0.917. The same measure for G11A G59C: 0.381; for G11A G59U: 0.408; for G10U A16U: 0.846. The same measure for G11A C13A: 0.0791; for G11A C84U: 0.991. Under G11A C84G stands 0.851; under G11A C84A, 0.787. For G10U C15U, the self-cleavage is 0.445. The same measure for G10U C15G: 0.0773. The same measure for G10U C15A: 0.222; for G10U G11U: 0.344; for G10U G11C: 0.237. Under G10C A77U stands 0.0554. Take G10C A77C: the self-cleavage turned out to be 0.208. With G11A C48U, the self-cleavage came out at 0.326. Consider G10C A78G, for which the self-cleavage came to 0.399. Under G10C U79A stands 0.277.

Take G10C U79G: the self-cleavage came to 0.346. The same measure for G10C U46A: 0.525; for G10C U46G: 0.346. On to G10C U46C, for which the self-cleavage came to 0.475. Regarding G10C C24G, the self-cleavage worked out at 0.

Take G10C G54C: the self-cleavage worked out at 1.09. Under G10C A56C stands 0.978.

G10U U37G: the self-cleavage stood at 0.0978. The same measure for G10C G28A: 0.0723; for G10U A83G: 0.221. Turning to G10U A83U, the self-cleavage was 0.177. The same measure for G10C C19U: 0.0264; for G10C C19G: 0.0811.

Take G10C C19A: the self-cleavage is 0.0563. Under G10U stands 0.776; under G11A C61A, 0.379. Consider G10C C18G, for which the self-cleavage was found to be 0.0594. The same measure for G10C U65A: 0.665. In the case of G10C U65G, the self-cleavage is 0.997.

For G10C A43G, the self-cleavage turned out to be 0.317.

Consider G10C A43C, for which the self-cleavage is 0.219. Under G10C A43U stands 0.415; under G10U U69C, 0.656; under G10U U69G, 0.815. Under G10U C19U stands 0.144; under G10C C62G, 0.719.
